Target: the molecule itself
Experiment: cell-based or functional assay

B1: wildtype C9 (C9wt) (natural protein)
chain: not shown
modifications: Cy5 at the C-terminus in the binding assays (GGGK-azide sortagged onto LPETGG, then DBCO-Cy5 by copper-free click chemistry)
  bacterial viability (CFU) of C5b-8 labelled E. coli MG1655 with 100 nM C9, decrease: ≥ 1000 fold

— publication PMC8604303, “Polymerization of C9 enhances bacterial cell envelope damage and killing by membrane attack complex pores” (PLoS Pathogens, 2021)
